Measurements reported in article PMC11079029, “Intramolecular autoinhibition regulates the selectivity of PRPF40A tandem WW domains for proline-rich motifs” (Nature Communications, 2024).
Values joined by “and” are separate entries in the source; they are usually repeats but may differ in a detail not shown here. Equal entries are not always repeated.

B1: GB1-tagged SF1 Pro D (594-639) (domain or fragment, UniProt Q15637 594-639, looked up)
chain: GMMYAPPPPPPPPMDPSNFVTMMGMGVAGMPPFGMPPAPPPPPPQN
notes: SF1 residues 594-639; also called the very C-terminal region; source: E. coli BL21(DE3), purified (Ni-NTA, SEC), GB1 tag kept; not shown: GB1, N-terminal, kept
B2: GB1-SF1 Pro D (residues 594-639) (domain or fragment, UniProt Q15637 594-639, looked up)
chain: B1 chain
notes: splicing factor 1 (SF1), residues 594-639 of the proline-rich C-terminal region; His6-GB1-TEV site cassette of the pET24 vector, not cleaved; source: E. coli BL21(DE3), purified (Ni-NTA, SEC); not shown: GB1, N-terminal, kept
B3: GB1-SF1 Pro C (residues 539-594) (domain or fragment, UniProt Q15637 539-594, looked up)
chain: GSIPPWQQQQAAAAASPGAPQMQGNPTMVPLPPGVQPPLPPGAPPPPPPPPPGSAG
notes: splicing factor 1 (SF1), residues 539-594 of the proline-rich C-terminal region (holds the WWbs motif 575-590); His6-GB1-TEV site cassette of the pET24 vector, not cleaved; source: E. coli BL21(DE3), purified (Ni-NTA, SEC); not shown: GB1, N-terminal, kept
B4: GB1-SF1 Pro B (residues 468-539) (domain or fragment, UniProt Q15637 468-539, looked up)
chain: GMMPPPPMGMMPPPPPPPSGQPPPPPSGPLPPWQQQQQQPPPPPPPSSSMASSTPLPWQQNTTTTTTSAGTG
notes: splicing factor 1 (SF1), residues 468-539 of the proline-rich C-terminal region; His6-GB1-TEV site cassette of the pET24 vector, not cleaved; source: E. coli BL21(DE3), purified (Ni-NTA, SEC); not shown: GB1, N-terminal, kept
B5: GB1-SF1 Pro A (residues 410-468) (domain or fragment, UniProt Q15637 410-468, looked up)
chain: GHPMQHNPNGPPPPWMQPPPPPMNQGPHPPGHHGPPPMDQYLGSTPVGSGVYRLHQGKG
notes: splicing factor 1 (SF1), residues 410-468 of the proline-rich C-terminal region; His6-GB1-TEV site cassette of the pET24 vector, not cleaved; source: E. coli BL21(DE3), purified (Ni-NTA, SEC); not shown: GB1, N-terminal, kept
B6: GB1-polyproline peptide P29 (peptide)
chain: GAMSGSPPPPPPPPPPPPPPPPPPPPPPPPPPPPPSGSN
notes: common N-terminal residues after the TEV site (TEVsite-GAMSGS-peptide-SGSN); 29 consecutive prolines; common C-terminal residues; pET24 vector with 6xHis, GB1 and TEV site as N-terminal cassette, not cleaved; also called polyproline length 29; source: E. coli BL21(DE3), purified (Ni-NTA, SEC); not shown: GB1, N-terminal, kept
B7: GB1-polyproline peptide P13 (peptide)
chain: GAMSGSPPPPPPPPPPPPPSGSN
notes: common N-terminal residues after the TEV site (TEVsite-GAMSGS-peptide-SGSN); 13 consecutive prolines; common C-terminal residues; pET24 vector with 6xHis, GB1 and TEV site as N-terminal cassette, not cleaved; also called polyproline length 13; source: E. coli BL21(DE3), purified (Ni-NTA, SEC); not shown: GB1, N-terminal, kept
B8: GB1-polyproline peptide P8 (peptide)
chain: GAMSGSPPPPPPPPSGSN
notes: common N-terminal residues after the TEV site (TEVsite-GAMSGS-peptide-SGSN); 8 consecutive prolines; common C-terminal residues; pET24 vector with 6xHis, GB1 and TEV site as N-terminal cassette, not cleaved; also called polyproline length 8; source: E. coli BL21(DE3), purified (Ni-NTA, SEC); not shown: GB1, N-terminal, kept
B9: GB1-polyproline peptide P19 (peptide)
chain: GAMSGSPPPPPPPPPPPPPPPPPPPSGSN
notes: common N-terminal residues after the TEV site (TEVsite-GAMSGS-peptide-SGSN); 19 consecutive prolines; common C-terminal residues; pET24 vector with 6xHis, GB1 and TEV site as N-terminal cassette, not cleaved; also called polyproline length 19; source: E. coli BL21(DE3), purified (Ni-NTA, SEC); not shown: GB1, N-terminal, kept
B10: GB1-polyproline peptide P22 (peptide)
chain: GAMSGSPPPPPPPPPPPPPPPPPPPPPPSGSN
notes: common N-terminal residues after the TEV site (TEVsite-GAMSGS-peptide-SGSN); 22 consecutive prolines; common C-terminal residues; pET24 vector with 6xHis, GB1 and TEV site as N-terminal cassette, not cleaved; also called polyproline length 22; source: E. coli BL21(DE3), purified (Ni-NTA, SEC); not shown: GB1, N-terminal, kept

Biological target: T1, PRPF40A WW12 (tandem WW domains, residues 141-236) (human, UniProt O75400 141-236)
T1 construct: pETM11 vector, NcoI/KpnI; 15N or 13C,15N labelled for NMR; also called PRPF40A WW tandem; PRPF40A tandem WW domains; source: E. coli BL21(DE3), purified (Ni-NTA, TEV, reverse Ni-NTA, SEC); not shown: His6, N-terminal, cleaved
Test: ITC; GB1-tagged SF1/SF3A1 constructs in the syringe and the WW tandem in the cell; 25 °C, 20 mM sodium phosphate pH 6.5, 100 mM NaCl; one-site model; apparent affinities
Details: both partners purified

**Q.** B1 was tested. Which Kd did it give?
**A.** ~10 µM

Biological target: T2, PRPF40A WW12 (tandem WW domains, residues 141-236) (human, UniProt O75400 141-236)
T2 construct: A few vector residues probably remain at the N-terminus after TEV cleavage (pETM11, NcoI site); 15N-labelled in the NMR experiments; also called PRPF40A WW tandem; WW12 wt; source: E. coli BL21(DE3), purified (Ni-NTA, TEV digestion, reverse Ni-NTA, SEC); not shown: His6, N-terminal, cleaved
Test: ITC; GB1-peptide or GB1-SF1 construct in the cell, PRPF40A WW12 in the syringe (as shown in Supplementary Figures 7 and 16A); 25 °C, 20 mM sodium phosphate pH 6.5, 100 mM NaCl; one-site binding model; at least duplicates; affinities apparent
Details: both partners purified

**Q.** For B2, which Kd is on record?
**A.** 10.1 ± 4.2 µM

**Q.** B3 was tested. Which Kd did it give?
**A.** 2.02 ± 0.09 µM

**Q.** With PPPPPPPPPPPPPPPP [GB1-polyproline peptide P16] as the binder, how does the Kd read?
**A.** 3.35 ± 0.27 µM

**Q.** With PPPPPPPPPPPPPPPPPPPPPPPPPPPPP as the binder, how does the Kd read?
**A.** 9.15 ± 1.85 µM

**Q.** For PPPPPPPPPPPPP, which Kd is on record?
**A.** 8.54 ± 1.46 µM

**Q.** How did the Kd turn out when PPPPPPPPPPPPPPPPPPPPPPPPP [GB1-polyproline peptide P25] was run?
**A.** 10.8 ± 1.8 µM

**Q.** Which Kd does the source give for PPPPPPPPPPPPPPPPPPPPPP here?
**A.** 9.29 ± 0.88 µM

**Q.** For B4, which Kd is on record?
**A.** 20.6 ± 4.9 µM

**Q.** Which Kd does the source give for B5 here?
**A.** 25.1 ± 6.5 µM

**Q.** For PPPPPPPPPPPPPPPPPPP, which Kd is on record?
**A.** 6.76 ± 0.96 µM

**Q.** With TMVPLPPGVQPPLPPG [GB1-SF1 16-mer peptide 565-580] as the binder, how does the Kd read?
**A.** 30.4 ± 6.7 µM

Biological target: T3, PRPF40A WW12 (tandem WW domains, residues 141-236) (human, UniProt O75400 141-236)
T3 construct: pETM11 vector (NcoI/KpnI); also called PRPF40A WW tandem; isolated WW domains; source: E. coli BL21(DE3), purified (Ni-NTA, TEV cleavage, reverse Ni-NTA, SEC); not shown: His6, N-terminal, cleaved
Test: ITC; MicroCal PEAQ-ITC, 25 °C, 20 mM sodium phosphate pH 6.5, 100 mM NaCl; GB1-polyproline peptides in the cell, WW12 in the syringe (N sites >1: more than one WW tandem on one peptide); one-site model; apparent
Details: both partners purified

**Q.** With B6 as the binder, how does the Kd read?
**A.** 7.3 µM and 11 µM and 9.15 µM

**Q.** B7 was tested. Which Kd did it give?
**A.** 7.58 µM and 10.6 µM and 7.45 µM and 8.54 µM

**Q.** How did the Kd turn out when B8 was run?
**A.** > 50 µM

**Q.** B9 was tested. Which Kd did it give?
**A.** 7.02 µM and 6.5 µM and 6.76 µM

**Q.** With B10 as the binder, how does the Kd read?
**A.** 8.84 µM and 9.73 µM and 9.29 µM
